From patent publication US7250269B2, “Composition for assaying glycoprotein” (Asahi Kasei Pharma Corporation, priority 2001, dated 2007)

Key:
[1] = Isoelectric point by focusing electrophoresis; format: physicochemical; settings: 700 V for 40 hours at 4° C.; carrier ampholyte
Protocol: The isoelectric point determined by fractionating the enzyme after applying a constant voltage of 700 V for 40 hours at 4° C. in a focusing electrophoresis using carrier ampholyte, followed by measuring the enzyme activity of each fraction, was pH 4.3±0.2.

[2] = FOD enzyme activity / substrate specificity on glycated lysine; format: biochemical
Protocol: (§1) 164 strains of mutant colonies obtained in Example 15 were cultured for 16 hours at 30° C. in 1.5 ml of a 3.7% BHI liquid medium (manufactured by DIFCO Co.) containing 50 μg/ml of ampicillin and 1 mM of IPTG. 1 ml of the culture broth was centrifuged (15,000 G for one minute at 4° C.) to collect cells. 200 μl of 10 mM Tris-HCl buffer solution (pH 8.0) was added to the collected cells. After crushing the cells using an ultrasonic breaker, the mixture was centrifuged (14,000 G for five minutes at 4° C.) to obtain a cell extract as a supernatant.
(§2) The glycated amino acid substrate specificity of FOD-mutated recombinant contained in the cell extract prepared in Example 16 was measured using the above-mentioned FOD enzyme activity measuring method.
(§3) Synthesis of an oligonucleotide having the base sequence of 1-27 in the sequence table Sequence ID No. 7 was consigned to an outside source (BEX Co., Ltd.). The oligonucleotide was subjected to the site-directed mutagenesis using the Mutan-K kit (manufactured by Takara Shuzo Co., Ltd.) according to the manual attached to the kit. The mutant gene obtained was incorporated again into the expression plasmid pTV119N, introduced into Escherichia coli host, and cultured at 30° C. for 16 hours in a 3.7% BHI liquid medium containing 50 μg/ml of ampicillin and 1 mM of IPTG to produce mutant FOD protein.

[3] = FOD enzyme activity / substrate specificity on glycated valine; format: biochemical
Protocol: as §1, §2, §3

B1: Reactive 327th amino acid Tryptophan: mutant obtained by replacing the lysine with tryptophan, named FOD-W; plasmid pcmFOD3; Sequence ID No. 2 (protein)
chain: ASTLTKQSQILIVGGGTWGCSTALHLARRGYTNVTVLDVNRIPSPISAGHDVNKLAGRLSTADSKGDDEDSIWKALSYAAAQGWLHDPVFQPFCHNTGSVVAGSTPKSIKQLVEDEIGDDIDQYTPLNTAEDFRKTMPEGILTGNFPGWKGFYKPTGSGWVHARKAMKAAFEESERLGVKFITGSPEGKVESLIFEDGDVRGAKTADGKEHRADRTILSAGASAEFFLDFENQIQPTAWTLGHIQMTPEETKLYKNLPPLFNINQGFFMEPDEDLHQLKMCDEHPGYCNWVEKPGSKYPQSIPFAKHQVPTEAERRMKQFLKDIMPQLADRPLVHARICWCADTQDRMFLITYHPRHPSLVIASGDCGTGYWHITSIGKFISDCMEGTLEERFAKFWRWRPEKFTEFWGKDPLDRFGADDKIMDLPKSDVEGWTNIKNDI
modifications: sequence derived from Fusarium oxysporum IFO- 9722
- Optimum temperature (maximum activity) (40 mM Tris-HCl buffer solution (pH 7.5)): 50 °C
- Optimum pH (maximum activity) (100 mM buffers pH 4.4-10.3): 7.5
- Isoelectric point [1]: 4.3±0.2
- Substrate specificity ZFL [2]: 100%
- Reactivity ratio, glycated lysine / glycated valine ([2]; glycated lysine / glycated valine): 2980
- Substrate specificity FV [3]: 0%
